What was measured:
[1] = target: HA-tagged spinophilin (human) (UniProt Q96SB3); assay: co-IP; HEK293 cells co-transfected with HA-spinophilin, V5-NF-M and kinase dead K72H myc-PKAc; low-ionic Tris buffer with 1% Triton X-100; HA or V5 immunoprecipitation, immunoblot
[2] = target: PP1; assay: spinophilin IP, spectral counting by MS; conditions: reference: intact (contralateral) striatum; sites S17,S100

spinophilin, sequence (Q6R891 whole entry, looked up, change not shown): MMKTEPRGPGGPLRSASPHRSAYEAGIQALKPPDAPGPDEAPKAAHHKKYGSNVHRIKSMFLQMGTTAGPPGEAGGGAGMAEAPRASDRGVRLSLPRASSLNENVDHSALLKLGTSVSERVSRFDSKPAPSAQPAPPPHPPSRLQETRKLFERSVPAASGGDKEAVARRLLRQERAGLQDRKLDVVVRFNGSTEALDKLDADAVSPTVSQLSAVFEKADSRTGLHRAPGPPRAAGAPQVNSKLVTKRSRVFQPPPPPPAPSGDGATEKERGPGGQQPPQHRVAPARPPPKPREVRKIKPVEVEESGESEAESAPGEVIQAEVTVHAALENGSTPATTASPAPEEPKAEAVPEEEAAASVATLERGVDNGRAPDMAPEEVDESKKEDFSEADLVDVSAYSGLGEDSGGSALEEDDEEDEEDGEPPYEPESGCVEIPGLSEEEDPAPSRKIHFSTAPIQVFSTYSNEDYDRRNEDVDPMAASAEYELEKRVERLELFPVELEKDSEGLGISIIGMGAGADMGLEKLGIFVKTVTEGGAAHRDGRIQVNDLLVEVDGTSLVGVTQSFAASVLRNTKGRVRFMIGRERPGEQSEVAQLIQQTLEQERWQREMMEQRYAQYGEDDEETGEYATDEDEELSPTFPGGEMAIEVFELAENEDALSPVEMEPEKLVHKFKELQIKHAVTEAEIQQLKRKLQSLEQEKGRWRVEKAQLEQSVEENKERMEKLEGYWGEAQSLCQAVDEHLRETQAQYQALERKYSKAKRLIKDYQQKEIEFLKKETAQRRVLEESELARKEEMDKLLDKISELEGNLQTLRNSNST
UniProt Q96SB3, sequence (Q96SB3 whole entry): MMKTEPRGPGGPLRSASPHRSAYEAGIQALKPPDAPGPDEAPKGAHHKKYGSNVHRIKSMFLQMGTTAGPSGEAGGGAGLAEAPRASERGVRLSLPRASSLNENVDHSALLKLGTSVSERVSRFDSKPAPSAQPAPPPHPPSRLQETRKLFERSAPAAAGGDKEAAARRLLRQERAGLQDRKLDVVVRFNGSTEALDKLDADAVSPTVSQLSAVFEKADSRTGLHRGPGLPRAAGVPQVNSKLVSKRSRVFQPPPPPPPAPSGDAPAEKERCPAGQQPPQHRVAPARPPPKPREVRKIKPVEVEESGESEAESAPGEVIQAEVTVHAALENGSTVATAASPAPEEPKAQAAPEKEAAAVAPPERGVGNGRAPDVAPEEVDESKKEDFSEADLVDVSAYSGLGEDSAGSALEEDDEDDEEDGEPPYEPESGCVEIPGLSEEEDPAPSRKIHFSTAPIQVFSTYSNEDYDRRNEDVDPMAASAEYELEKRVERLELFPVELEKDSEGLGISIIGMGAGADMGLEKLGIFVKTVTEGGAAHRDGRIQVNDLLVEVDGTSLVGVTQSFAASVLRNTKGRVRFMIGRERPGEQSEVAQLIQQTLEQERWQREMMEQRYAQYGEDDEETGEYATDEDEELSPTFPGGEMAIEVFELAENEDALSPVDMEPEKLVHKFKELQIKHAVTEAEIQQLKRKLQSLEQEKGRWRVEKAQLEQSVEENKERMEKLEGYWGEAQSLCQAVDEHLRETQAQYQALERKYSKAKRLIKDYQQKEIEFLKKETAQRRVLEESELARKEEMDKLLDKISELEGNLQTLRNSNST

percent reduction of the association against wild type PKAc [1] [%] | other: percent increase over reference [2] [%] | Substance
63 | – | kinase dead (K72H mutant) myc-tagged PKAc (enzyme)
– | 28 | spinophilin (from UniProt Q6R891) 6-OHDA-lesioned (ipsilateral) striatum

Source: publication PMC5467389
